Results reported in US20060134087A1, “ITI-D1 Kunitz domain mutants as hNE inhibitors” (Dyax Corp., published 2006).
Positions count from the first letter of the chain named.

Tests used:
[1] = target: T1, Human Neutrophil Elastase (human, UniProt P08246); experiment: abbreviated fractionation of display phage on hNE beads
Method: To test if ITI-D1E7-display phage bind hNE beads, pH elution profiles were measured. Aliquots of EpiNE-7, MA-ITI-D1, and MA-ITI-D1E7 display phage were incubated with hNE beads for three hours at room temperature (RT). The beads were washed and phage were eluted as described in U.S. Pat. No. 5,223,409, except that only three pH elutions were performed.

[2] = target: T1, Human Neutrophil Elastase; experiment: display phage eluted from hNE beads, normalized to MA-EpiNE7 in a concurrent elution
[3] = target: T1, Human Neutrophil Elastase; experiment: enzyme inhibition assay
Method: (§1) Inhibition constants for the proteins reacting with hNE (Kᵢ) were determined using RT measurements of hydrolysis of a fluorogenic substrate (N-methoxysuccinyl-Ala-Ala-Pro-Val-7-amino-4-methylcoumarin, Sigma M-9771) by hNE. […] The reactions were incubated at RT for 30 minutes. At the end of the incubation period, the fluorogenic substrate was added at a concentration of 25 μM and the time course for increase in fluorescence at 470 nm (excitation at 380 nm) due to enzymatic substrate cleavage was recorded using a spectrofluorimeter (Perkin-Elmer 650-15) and strip chart recorder. […] Kᵢ is related to Kₐₚₚₐᵣₑₙₜ by Kᵢ=Kₐₚₚₐᵣₑₙₜ×(1/(1+(S₀/Kₘ))). The correction is small compared to the possible errors in Kₐₚₚₐᵣₑₙₜ. Rates of enzymatic substrate cleavage were determined from the linear slopes of the recorded increases in fluorescence.
(§2) We recorded data used to determine Kᵢ for EPI-HNE-2 and EPI-HNE-3 reacting with hNE. Data obtained as described above are recorded as percent residual activity plotted as a function of added inhibitor. […] From the data, Kᵢ values for EPI-HNE-2 and for EPI-HNE-3 reacting with hNE at RT were calculated to be 4.8 pM and 6.2 pM, respectively.

[4] = target: T1, Human Neutrophil Elastase; experiment: inhibition of hNE hydrolysis of a fluorogenic substrate, [hNE] = 8.47 × 10^-10 molar
Method: as §1, §2

Human Serum Plasmin = Human Serum Plasmin (human, UniProt P00747); experiment: enzyme inhibition assay; limit on the assumption of less than 10% inhibition at the highest concentration tested
Human Serum Thrombin = Human Serum Thrombin (human, UniProt P00734); experiment: as above
Human Urine Urokinase = Human Urine Urokinase (human, UniProt P00749); experiment: as above
Human Serum Kallikrein = Human Serum Kallikrein (human, UniProt P03952); experiment: as above
Human Plasma Factor Xa = Human Plasma Factor Xa (human, UniProt P00742); experiment: as above
[5] = target: Human Pancreatic Chymotrypsin (human, UniProt P17538); experiment: enzyme inhibition assay; said to be probably not specific
[6] = target: T1, Human Neutrophil Elastase; experiment: calculated by the filing from koff = KD × kon
From the text: […] […] B. Specificity.

[7] = target: T1, Human Neutrophil Elastase; experiment: progressive inhibition of hNE substrate hydrolysis after addition of inhibitor
Method: The kinetic on-rates for the inhibitors reacting with hNE (kₒₙ) were determined from measurements of progressive inhibition of substrate hydrolytic activity by hNE following addition of inhibitor. For these experiments, a known concentration of inhibitor was added to a solution of hNE (0.847 nM) and substrate (25 μM) in 2 ml of reaction buffer in a plastic fluorescence cuvette. The change in fluorescence was recorded continuously following addition of the inhibitor. […] The enzymatic rate at selected times following addition of the inhibitor was determined from the slope of the tangent to the fluorescence time course at that time.
The kinetic constant kₒₙ for EPI-HNE-2 reacting with hNE was determined as follows. EPI-HNE-2 at 1.3 nM was added to buffer containing 0.867 nM hNE (I:E=1.5:1) at time 0.

[8] = target: T1, Human Neutrophil Elastase; experiment: display phage on hNE beads, extended pH fractionation
From the text: We characterized the binding properties to hNE-beads of MA-BITI and MA-BITI-E7 display phage using the extended pH fractionation procedure described in U.S. Pat. No. 5,223,409.

[9] = target: T1, Human Neutrophil Elastase; experiment: pH elution of display phage from hNE beads, abbreviated protocol
From the text: (§3) Total pfu applied to the beads are in column two. The fractions of this input pfu recovered in each pH fraction of the abbreviated pH elution protocol (pH 7.0, pH 3.5, and pH 2.0) are in the next three columns. For data obtained using the extended pH elution protocol, the pH 3.5 listing represents the sum of the fractions of input recovered in the pH 6.0, pH 5.5, pH 5.0, pH 4.5, pH 4.0, and pH 3.5 elution samples. The pH 2.0 listing is the sum of the fractions of input obtained from the pH 3.0, pH 2.5, and pH 2.0 elution samples. The total fraction of input pfu obtained throughout the pH elution protocol is in the sixth column. The final column of the table lists the total fraction of input pfu recovered, normalized to the value obtained for MA-BITI-E7-141 phage.

[10] = target: T1, Human Neutrophil Elastase; experiment: pH elution of display phage from hNE beads
[11] = target: T1, Human Neutrophil Elastase; experiment: estimated for the free domain from display phage binding to and elution from hNE beads
[12] = target: T1, Human Neutrophil Elastase; experiment: pH elution of display phage from hNE beads, extended protocol
From the text: as §3

B1: MA-ITI-D1 display phage (other)
chain: KEDSCQLGYSAGPCMGMTSRYFYNGTSMACETFQYGGCMGNGNNFVTEKDCLQTCRTVGA
SUM, total fraction of input from all pH elution fractions [1]: 1.4e-05 fraction of input
fraction of input eluted at pH 2.0 [1]: 1e-06 fraction of input
fraction of input eluted at pH 3.5 [1]: 3e-06 fraction of input
fraction of input eluted at pH 7.0 [1]: 1e-05 fraction of input
fraction of input in Wash [1]: 1e-05 fraction of input
Normalized fraction of input (relative to recovered MA-EpiNE7) [2]: 0.0067 ratio

B2: EPI-HNE-4 (designed binder)
chain: EACNLPIVRGPCIAFFPRWAFDAVKGKCVLFPYGGCQGNGNKFYSEKECREYCGVP
Ki [3]: 0.005 nM
Kd [4]: 0.0046 nM
Ki (Human Serum Plasmin): > 90000 nM
Ki (Human Serum Thrombin): > 90000 nM
Ki (Human Urine Urokinase): > 90000 nM
Ki (Human Serum Kallikrein): > 90000 nM
Ki (Human Plasma Factor Xa): > 90000 nM
Ki [5]: ~10000 nM
koff [6]: 4.9e-05 s⁻¹
kon [7]: 1.06e+07 M⁻¹ s⁻¹

B3: MA-BITI display phage (designed binder)
chain: RPDFCQLGYSAGPCMGMTSRYFYNGTSMACETFQYGGCMGNGNNFVTEKDCLQTCRGA
Normalized fraction of input (relative to recovered MA-EpiNE7) [2]: 0.018 ratio
SUM, fraction of input from all pH elution fractions [8]: 3.9e-05 fraction of input
SUM, total pfu from all pH elution fractions [8]: 800000 pfu
pfu eluted at pH 2.0 [8]: 7700 pfu
pfu eluted at pH 2.5 [8]: 22000 pfu
pfu eluted at pH 3.0 [8]: 22000 pfu
pfu eluted at pH 3.5 [8]: 86000 pfu
pfu eluted at pH 4.0 [8]: 31000 pfu
pfu eluted at pH 4.5 [8]: 44000 pfu
pfu eluted at pH 5.0 [8]: 96000 pfu
pfu eluted at pH 6.0 [8]: 250000 pfu
pfu eluted at pH 7.0 [8]: 240000 pfu
pfu/Input eluted at pH 2.0 [8]: 3.8e-07 fraction of input
pfu/Input eluted at pH 2.5 [8]: 1.1e-06 fraction of input
pfu/Input eluted at pH 3.0 [8]: 1.1e-06 fraction of input
pfu/Input eluted at pH 3.5 [8]: 4.3e-06 fraction of input
pfu/Input eluted at pH 4.0 [8]: 1.6e-06 fraction of input
pfu/Input eluted at pH 4.5 [8]: 2.2e-06 fraction of input
pfu/Input eluted at pH 5.0 [8]: 4.8e-06 fraction of input
pfu/Input eluted at pH 6.0 [8]: 1.2e-05 fraction of input
pfu/Input eluted at pH 7.0 [8]: 1.2e-05 fraction of input

B4: AMINO2 display phage (designed binder)
chain: B3 chain with R1K, F4S, M15V, G16A, T18F, S19P
Fraction of Input recovered at pH2.0 [9]: 4.5e-05 fraction of input
Fraction of Input recovered at pH3.5 [9]: 0.00021 fraction of input
Fraction of Input recovered at pH7.0 [9]: 5.7e-05 fraction of input
Recovery Relative to BITI-E7-141 [9]: 0.12 ratio
Recovery, Total fraction of input [9]: 0.00031 fraction of input
fold reduction of binding against parental MA-BITI-E7-141 [10]: ≥ 10 fold

B5: MUTQE display phage (designed binder)
chain: B3 chain with M15V, G16A, T18F, S19P, Q34V
Fraction of Input recovered at pH2.0 [9]: 0.00053 fraction of input
Fraction of Input recovered at pH3.5 [9]: 0.0016 fraction of input
Fraction of Input recovered at pH7.0 [9]: 0.00012 fraction of input
Recovery Relative to BITI-E7-141 [9]: 0.85 ratio
Recovery, Total fraction of input [9]: 0.0022 fraction of input
Estimated KD [11]: < 0.01 nM

B6: MUT1619 display phage (designed binder)
chain: B3 chain with M15V, T18F, E31Q, Q34V
Fraction of Input recovered at pH2.0 [12]: 8.4e-05 fraction of input
Fraction of Input recovered at pH3.5 [12]: 0.00099 fraction of input
Fraction of Input recovered at pH7.0 [12]: 8.2e-05 fraction of input
Recovery Relative to BITI-E7-141 [12]: 0.46 ratio
Recovery, Total fraction of input [12]: 0.0012 fraction of input
Estimated KD [11]: < 0.01 nM

B7: MA-BITI-E7 display phage (designed binder)
chain: B3 chain with M15V, G16A, T18F, S19P
Normalized fraction of input (relative to recovered MA-EpiNE7) [2]: 0.13 ratio
SUM, fraction of input from all pH elution fractions [8]: 0.00029 fraction of input
SUM, total pfu from all pH elution fractions [8]: 1.8e+06 pfu
pfu eluted at pH 2.0 [8]: 8700 pfu
pfu eluted at pH 2.5 [8]: 23000 pfu
pfu eluted at pH 3.0 [8]: 89000 pfu
pfu eluted at pH 3.5 [8]: 90000 pfu
pfu eluted at pH 4.0 [8]: 240000 pfu
pfu eluted at pH 4.5 [8]: 380000 pfu
pfu eluted at pH 5.0 [8]: 370000 pfu
pfu eluted at pH 6.0 [8]: 280000 pfu
pfu eluted at pH 7.0 [8]: 280000 pfu
pfu/Input eluted at pH 2.0 [8]: 1.4e-06 fraction of input
pfu/Input eluted at pH 2.5 [8]: 3.8e-06 fraction of input
pfu/Input eluted at pH 3.0 [8]: 1.5e-05 fraction of input
pfu/Input eluted at pH 3.5 [8]: 1.5e-05 fraction of input
pfu/Input eluted at pH 4.0 [8]: 4e-05 fraction of input
pfu/Input eluted at pH 4.5 [8]: 6.3e-05 fraction of input
pfu/Input eluted at pH 5.0 [8]: 6.2e-05 fraction of input
pfu/Input eluted at pH 6.0 [8]: 4.7e-05 fraction of input
pfu/Input eluted at pH 7.0 [8]: 4.7e-05 fraction of input

B8: AMINO1 display phage (designed binder)
chain: B3 chain with R1K, P2E, M15V, G16A, T18F, S19P
Fraction of Input recovered at pH2.0 [12]: 3.5e-05 fraction of input
Fraction of Input recovered at pH3.5 [12]: 0.00023 fraction of input
Fraction of Input recovered at pH7.0 [12]: 2.4e-05 fraction of input
Recovery Relative to BITI-E7-141 [12]: 0.11 ratio
Recovery, Total fraction of input [12]: 0.00029 fraction of input
fold reduction of binding against parental MA-BITI-E7-141 [10]: ≥ 10 fold

B9: MA-BITI-E7-1222 display phage (designed binder)
chain: B3 chain with A11T, M15V, G16A, T18F, S19P
Fraction of Input recovered at pH2.0 [12]: 6.4e-05 fraction of input
Fraction of Input recovered at pH3.5 [12]: 0.0004 fraction of input
Fraction of Input recovered at pH7.0 [12]: 7.2e-05 fraction of input
Recovery Relative to BITI-E7-141 [12]: 0.21 ratio
Recovery, Total fraction of input [12]: 0.00054 fraction of input

B10: MA-BITI-E7-141 display phage (designed binder)
chain: B3 chain with M15V, G16A, T18F, S19P, E31Q, Q34V
Fraction of Input recovered at pH2.0 [12]: 0.00032 fraction of input
Fraction of Input recovered at pH3.5 [12]: 0.0021 fraction of input
Fraction of Input recovered at pH7.0 [12]: 0.00021 fraction of input
Recovery Relative to BITI-E7-141 [12]: 1 ratio
Recovery, Total fraction of input [12]: 0.0026 fraction of input
Fraction of Input recovered at pH2.0 [9]: 0.00054 fraction of input
Fraction of Input recovered at pH3.5 [9]: 0.0018 fraction of input
Fraction of Input recovered at pH7.0 [9]: 0.00022 fraction of input
Recovery Relative to BITI-E7-141 [9]: 1 ratio
Recovery, Total fraction of input [9]: 0.0026 fraction of input
Estimated KD [11]: < 0.01 nM
fold increase in total fraction of input eluted, relative to parental MA-BITI-E7 [8]: 10 fold

B11: MUTT26A display phage (designed binder)
chain: B3 chain with M15V, G16A, T18F, S19P, T26A, E31Q, Q34V
Fraction of Input recovered at pH2.0 [12]: 0.00033 fraction of input
Fraction of Input recovered at pH3.5 [12]: 0.0019 fraction of input
Fraction of Input recovered at pH7.0 [12]: 0.00025 fraction of input
Recovery Relative to BITI-E7-141 [12]: 0.96 ratio
Recovery, Total fraction of input [12]: 0.0025 fraction of input
Estimated KD [11]: < 0.01 nM

B12: MUTP1 display phage (designed binder)
chain: B3 chain with M15I, T18F
Fraction of Input recovered at pH2.0 [9]: 0.00012 fraction of input
Fraction of Input recovered at pH3.5 [9]: 0.00092 fraction of input
Fraction of Input recovered at pH7.0 [9]: 0.00018 fraction of input
Recovery Relative to BITI-E7-141 [9]: 0.46 ratio
Recovery, Total fraction of input [9]: 0.0012 fraction of input
